Test [1] concerns the target CD46, human (human) (UniProt P15529). Nature of the test: flow cytometry; directly labelled antibody on siRNA knockdown SK-OV-3 cells. (In general: In flow cytometry, cells or beads pass a laser one at a time.)
Test [2] has the same target. In words: flow cytometry; directly labelled antibody on wild-type SK-OV-3 cells.
The target in test [3] is CD59, human (human) (UniProt P13987). Nature of the test: flow cytometry; directly labelled antibody on siRNA knockdown SK-OV-3 cells.
For test [4] the target is unchanged. Nature of the test: flow cytometry; directly labelled antibody on wild-type SK-OV-3 cells.
Test [5] has as its target CD55, human (human) (UniProt P08174). Nature of the test: flow cytometry; directly labelled antibody on siRNA knockdown SK-OV-3 cells.
Test [6] has the same target. Nature of the test: flow cytometry; directly labelled antibody on wild-type SK-OV-3 cells.
Test [7] deals with CD46, human (human) (UniProt P15529). In words: FACS titration on carcinoma cells, secondary antibody; dilution 1/5000, final 0.02 µg/ml.
For test [8] the target is unchanged. In words: FACS titration on carcinoma cells, secondary antibody; dilution 1/10, final 10 µg/ml.
Test [9] has the same target. Nature of the test: FACS titration on carcinoma cells; dilution just sufficient for a saturated staining.
Test [10] has the same target. In words: FACS titration on carcinoma cells, secondary antibody; dilution 1/500, final 0.2 µg/ml.
The target is the same in test [11]. In words: FACS titration on carcinoma cells, secondary antibody; dilution 1/100, final 1 µg/ml.
The target is the same in test [12]. Nature of the test: FACS titration on carcinoma cells, secondary antibody; dilution 1/1000, final 0.1 µg/ml.
Test [13] shares this target. In words: FACS titration on carcinoma cells, secondary antibody; dilution 1/10000, final 0.01 µg/ml.
Test [14] shares this target. Nature of the test: FACS titration on carcinoma cells, secondary antibody; dilution 1/1000, final 1 µg/ml.
For test [15] the target is unchanged. In words: FACS titration on carcinoma cells, secondary antibody; dilution 1/10000, final 0.1 µg/ml.
For test [16] the target is unchanged. In words: FACS titration on carcinoma cells, secondary antibody; dilution 1/10, final 100 µg/ml.
Test [17] has the same target. In words: FACS titration on carcinoma cells, secondary antibody; dilution 1/100, final 10 µg/ml.
The target is the same in test [18]. In words: FACS titration on carcinoma cells, secondary antibody; dilution 1/5000, final 0.2 µg/ml.
For test [19] the target is unchanged. In words: FACS titration on carcinoma cells, secondary antibody; dilution 1/500, final 2 µg/ml.
Test [20] concerns the target CD55, human (human) (UniProt P08174). In words: FACS titration on carcinoma cells, secondary antibody; dilution 1/1000, final 1 µg/ml.
The target is the same in test [21]. Nature of the test: FACS titration on carcinoma cells, secondary antibody; dilution 1/10000, final 0.1 µg/ml.
The target is the same in test [22]. In words: FACS titration on carcinoma cells; dilution just sufficient for a saturated staining.
Test [23] has the same target. Nature of the test: FACS titration on carcinoma cells, secondary antibody; dilution 1/10, final 100 µg/ml.
Test [24] shares this target. Nature of the test: FACS titration on carcinoma cells, secondary antibody; dilution 1/100, final 10 µg/ml.
For test [25] the target is unchanged. Nature of the test: FACS titration on carcinoma cells, secondary antibody; dilution 1/5000, final 0.2 µg/ml.
Test [26] shares this target. Nature of the test: FACS titration on carcinoma cells, secondary antibody; dilution 1/500, final 2 µg/ml.
Test [27] addresses CD59, human (human) (UniProt P13987). In words: FACS titration on carcinoma cells, secondary antibody; dilution 1/1000, final 1 µg/ml.
For test [28] the target is unchanged. Nature of the test: FACS titration on carcinoma cells, secondary antibody; dilution 1/10000, final 0.1 µg/ml.
For test [29] the target is unchanged. Nature of the test: FACS titration on carcinoma cells; dilution just sufficient for a saturated staining.
The target is the same in test [30]. In words: FACS titration on carcinoma cells, secondary antibody; dilution 1/10, final 100 µg/ml.
Test [31] shares this target. Nature of the test: FACS titration on carcinoma cells, secondary antibody; dilution 1/100, final 10 µg/ml.
Test [32] shares this target. Nature of the test: FACS titration on carcinoma cells, secondary antibody; dilution 1/5000, final 0.2 µg/ml.
For test [33] the target is unchanged. Nature of the test: FACS titration on carcinoma cells, secondary antibody; dilution 1/500, final 2 µg/ml.

UniProt P13987, sequence (P13987 26-102): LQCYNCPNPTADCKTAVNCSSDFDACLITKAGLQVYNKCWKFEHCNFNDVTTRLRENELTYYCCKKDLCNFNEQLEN
UniProt P15529, sequence (P15529 35-392): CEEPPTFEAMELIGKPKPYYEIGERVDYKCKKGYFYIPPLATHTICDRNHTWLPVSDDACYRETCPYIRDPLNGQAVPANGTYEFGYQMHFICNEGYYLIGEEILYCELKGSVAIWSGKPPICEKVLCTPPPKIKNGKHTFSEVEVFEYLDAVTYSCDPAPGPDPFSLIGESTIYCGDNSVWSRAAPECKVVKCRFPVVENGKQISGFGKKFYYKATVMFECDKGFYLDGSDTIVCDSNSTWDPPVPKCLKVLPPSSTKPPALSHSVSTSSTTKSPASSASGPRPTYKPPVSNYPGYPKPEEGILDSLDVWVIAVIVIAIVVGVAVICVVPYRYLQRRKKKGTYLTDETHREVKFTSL
UniProt P08174, sequence (P08174 35-353): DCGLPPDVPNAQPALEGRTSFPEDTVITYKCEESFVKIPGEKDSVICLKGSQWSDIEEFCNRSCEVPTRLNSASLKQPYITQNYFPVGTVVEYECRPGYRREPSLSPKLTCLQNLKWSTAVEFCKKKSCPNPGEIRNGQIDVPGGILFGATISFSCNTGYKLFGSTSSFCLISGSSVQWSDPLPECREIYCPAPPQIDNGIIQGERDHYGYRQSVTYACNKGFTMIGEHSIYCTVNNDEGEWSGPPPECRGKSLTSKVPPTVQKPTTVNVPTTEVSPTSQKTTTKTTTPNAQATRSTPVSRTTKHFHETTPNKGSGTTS

With “anti-CD46-FITC antibody (BD Pharmingen, Cat. No. 555949)”, the FACS signal (FITC) with CD46, human (human) [1] came to 662 FITC signal; with CD46, human (human) [2] it was 683 FITC signal.
Regarding “anti-CD59-PE antibody (BD Pharmingen, Cat. No. 555764)”, the FACS signal (PE) turned out to be 649 PE signal in the test with CD59, human (human) [3] and 1190 PE signal in the test with CD59, human (human) [4].
Take “anti-CD-55-APC antibody (BD Pharmingen, Cat. No. 555696)”: the FACS signal (APC) with CD55, human (human) [5] came out at 275 APC signal; with CD55, human (human) [6], 1450 APC signal.
As to “anti-human CD46 antibody #383, clone M177 (Hycult, HM2103)”, the Geom. Mean. FITC (geom. mean FITC) is 15800 with CD46, human (human) [7]; 84000 in the test with CD46, human (human) [8]; 74000 in the test with CD46, human (human) [10]; 81800 with CD46, human (human) [11]; 50000 with CD46, human (human) [12]; 14000 in the test with CD46, human (human) [13]. Also, the 1x conc. (1-time saturating concentration) in the test with CD46, human (human) [9] worked out at 0.3 µg/mL.
On to “anti-human CD46 antibody #386, clone MEM258 (AbD Serotec, MCA2113)”, for which the Geom. Mean. FITC (geom. mean FITC) turned out to be 75200 in the test with CD46, human (human) [14]; 53500 with CD46, human (human) [15]; 87600 with CD46, human (human) [16]; 79500 with CD46, human (human) [17]; 66400 in the test with CD46, human (human) [18]; 75500 with CD46, human (human) [19]. The substance further registered a 1x conc. (1-time saturating concentration) in the test with CD46, human (human) [9] of 0.2 µg/mL.
Take “anti-human CD55 antibody #387, clone BRIC216 (AbD Serotec, MCA914)”: the Geom. Mean. FITC (geom. mean FITC) was 25100 in the test with CD55, human (human) [20]; 24100 in the test with CD55, human (human) [21]; 32000 in the test with CD55, human (human) [23]; 26900 in the test with CD55, human (human) [24]; 23700 with CD55, human (human) [25]; 25200 with CD55, human (human) [26]. This substance also yielded a 1x conc. (1-time saturating concentration) with CD55, human (human) [22] of 0.1 µg/mL.
As to “anti-human CD59 antibody #384, clone MEM43 (antibodies online, ABIN118751)”, the Geom. Mean. FITC (geom. mean FITC) came to 95500 with CD59, human (human) [27]; 82400 with CD59, human (human) [28]; 95200 with CD59, human (human) [30]; 95500 with CD59, human (human) [31]; 94000 with CD59, human (human) [32]; 95500 in the test with CD59, human (human) [33]. Besides, in the test with CD59, human (human) [29], the 1x conc. (1-time saturating concentration) was 0.2 µg/mL.
As to “anti-human CD59 antibody #385, clone YTH53.1 (AbD Serotec, MCA715G)”, the Geom. Mean. PE (geom. mean PE) with CD59, human (human) [27] stood at 60500; in the test with CD59, human (human) [28] it was 50100; with CD59, human (human) [30], 55400; with CD59, human (human) [31] it was 64200; in the test with CD59, human (human) [32], 53800; in the test with CD59, human (human) [33], 62700. In the test with CD59, human (human) [29], this substance yielded a 1x conc. (1-time saturating concentration) of 0.1 µg/mL.
